Measured values taken from the NTF2 design screens of Basanta et al. (2020).

Experiment: protease stability score; higher = more stable; yeast display proteolysis, trypsin and chymotrypsin;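 also: log10 excess protease needed over predicted unfolded state with 0 meaning unfolded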

Sequence	protease stability score
EEELQKKASEFIRLQQKGDSEEVMKNVDPNARINVGDKVYDGREQLAKDLHRSKRESRMHFDLKSISVENGKVDVRARMHVVENGQPRRFRVRIIFHQENGRITHFQYHTDD	0.258
DSQKERDLVEHFLRNFRTGDPDKLKTMADPNAHMRVGDKNVHGREDLSRWVQEVRDRADHIDIDTFSVSNGRATATIVMRVDGKEVRFEVVITMENGKIKSMEQQDR	0.726
DHEDLVKRFIETMKEIYHTGNFRELANLADEDVQIHVGDKTVTGREHLRKEQETTERHADHATMRVDEVEVDGDKARVVFTVTIQVNGEKRSDRLVVEFRVHNGQLRIKSMRQQ	1.05
EEELAKRIRDFLHWVEKGNDDRAMELADPNARVDIGDRDIHGRESIREWVKKMQDKQRVEFDVKHVTVRGNTVVVDLVMRVEHNGQPSETKYQFEAKDNNGHLKFIKVTTIS	1.3
DEKKVKEMVTEAQKAIENNDSDTMAKFLKPDVEFHFGDVKLKGPEDVKKYYDKVRRVGMEAHVKEAEVKGDTAQVVYDVEVKGKRVTITARVQMKDERVDRAEVELDEDYAREVTEG	-0.02
DEEYNKKVQDIFNTNDPSQFKSLIDPNARMEVGDHVFHGRHNIVKHLKKFRDQVDHFEIKEIDVKGNKLSMEFVAVVNGKRVRATMSQQAHNGRMQEIRIKATSEEDKKILKEVTS	-0.048
DEQAMSVAEELISALNTGNEDQVDRLMDPNAHLQVGDKRLHGREEVRRHVKTLKDQARFDMKVDSLRVQGEKVRLDATYTFEVNGRPREDRVIIDMTLTNGTVKRIRFNFDPDDWRKMEG	1.04
DEKVHKIFEHYMTAVNRNNPDRAMRQVDPNAHVEVGDRQISGRENLRETVEKLNKHARINYRDFDAELHGDKVNVDLDIRMEYNGKPYSDHVIIIFRAQGDKIKHMTNDIDPDVEHHFEQ	0.081
DDTMIRRLTEWWRAFEHNNSNQMKELADPNAKFSYGDKTVTGMDDIAKQLVNEAREMRVEIRHMKVEQHGEKVRVDFEYEIRDNGRPHTNRVVLEAHQHNGKIQSVQVKDDR	0.356
DETQLRIASEFEEAVRRGNEEQAKRNVDPNARVRVGDTEVHGNEQIAKKIRQEVEHARVSVKSVTNHTDENRVVIDVEFEATHNGEPTSKKYQVNIEIRNGKIKEINYHDSK	-0.157
DEDEATKVATNMQEILETGNPDEAAKLADKDVRVVVGDKDVHGSENLKDMMRELRERADHLRVVDMHSHGEKFVLLVIIEHNGRRHQVNIVMTIDNGRIKSLSITSG	1.87
DEERVRQIADKMFKAIISGNSKDVQQVVKPNIQYEYGDEKYQGPKVVDQLVKVVKKIGAEVREREKTVHGDTMTAVFQYHKGDTTVQTEAEVKYEGDKAKRLRVKLSEEAQKVIKQG	-0.114
DEEKKRRVAQKIAKLVQTGDPRDVETMMRDDVRANYGDKEYHGRENVSTFADRQVKKVDHRHIESVKNSGEQLVVDMRFVINGHNVRFRISFEFHNGKIKQANFDPKAIEHQDS	-0.176
DEKQLKHVQEWVETGDPDQFARNADPNAEIQIGNTTWQGREEIQKLAHRLKKQVDTQELKDIQVHGDHVLVNRVMEWDGHTFEFSMHIKVQNGRIKSVDVKVRDPSQQKELEDHLS	-0.087
DEDLMRKFVERVKTGDPKDLVDQLDENAHQVVGETRVHGRSQFEKLAKKLEEQVDHIKVRSVKQENGRVDMDVVVNVNGQNNRYVLRVDVHNGKIKHMEVEFTDEEDEKAYRKALG	0.095
DEHNHKVAEEIFKALTTGDPDKVRENFDKDASLVIGDKTVNGRKQIKEEVQKRKDEMRIDFKNIDIQVSDGKVRVNVRMQVNINGQPVDFTLDAEFDIHNGKAKQVRFEFDEKDKRTLEQ	-0.059
DEEHKAKDAARRMQEVARRNDPTQAKEMIPPDAKVRVGDKDVHGREQVVTLFKKIADQADHLDIQVSSVDIQGDRAVVVFNLRYTINGQDRRNRVVVIFRDHNGHVMILEVQEQ	0.514
DDHAMRKFHELLKAIETGDEKKITDLADKHARFEYGDTEVHGRHKYAKEATDRRREMRIEIKDMKTRVDENHVQINNNYQVQVNGEPHTYTVQVVVRMDNGRLKQVQIRVSEEIRDRNKT	-0.166
DEEAQRLLEKAMKALEQNNPQQFVNLLDPNATMIVGDKVYHGRESARKALDDIRSTMRVEVKDVKASAQGDKVQARMRVILDHNGKPSDRTQNITVRVHNGKMTSVELKTDT	0.88
EEQAQENLENLIRAIEHGDHKTAKELMDPNVKFHYGDKQYHGRERVTDFIRTVHEQMDVEIESFDLKLENGRAKAKMTAVYDVNGKPVKISVTYVATVHNGKVKHLQRRVDPSQQREVKG	1.02
DEEANKVIDRLLKAIKHNNPDQAQHNMDEDVRIRIGDQEINGREQAKKEIRKRNEKMRINIDEVTLNEHPNKVRIQYRYKVDVNGRPVRNSAHMEARVSNGKVKEIDVRVSEDQKRHEER	0.018
DDDAVRKARELQKAYDHGDEQKVRDLADPNARVRVGDKKLHGMEDIAHTLAERDKQIDNTVRVDRITAHNGRVDANLRMRNNNNGRPNNFELDLKVVVDNGNIVDVDRQNNR	-0.207
DDESRVRKMLEDMREQLQTGNPERVADMADPNVEVTVGDKTLRGREDLVKYWRSIAENVDRVDLKLRSLNISGDQISVDFVERNNDNGQTRKHDASARFQKDNGRILATHIHVQ	0.119
DDDLKRKVHKFVEDWKDGDPHRLNHMADEDVRFQVGDKEIHGRKQMHEEVDKEKKEMRRHIDHLELDNQGNTVRVRFELTFTHNGKPFKVDVTIDMEFDGDRLKQAVQRVPREDQTKVKN	-0.209
DEQQAKRVAEEFNRVLQTGDNRKAMQLADKDVKLHVGDKDVHGRETMMKLVRKERDRVDHVEIKEVTIQGNKIDVILTVVVNGRHKEKHYVLHLHNGRIEDLSVRST	0.005

Sequence	protease stability score
DEKRAHDFAQQVIRVIQDGDPREAQKLADENVRVEYGDRTVHGKEQISNFAQEFRTRVDHVKIDTWHAQGDKIVIHLKVNVNGREKRVVVVVEVHNGRVKSLVYKDG	1.24
DRHERKKVAKDFNEALETNDHEQLMEQMDPNARIKYGDKHYHGREDLRRFWKKLVDSVDHITVDKMQVRGEEVVVLAKAESNGRNETFRLVMEFHNGRIKFVRKDTP	0.132
DEEEQEKQAHDFARVFNTGDEEKFKRLMPPDARFRYGDKEYHGMDDLLRMLLEMHKRADHLTLVDVDAHGNHLTIRIKVTVNGSDVTVDITITVDNGRLKSVVVDPRQWQKLRN	0.066
DEQDDAHKAKEFLEAVVTGNEERLRRMVDPNARIHYGDQEYHGREKIVDLMIRWRERVDHFTIDRVHSHNGRVQMDAFFTHNGRTKRFVARVVVHNGKVKSIEYTDG	0.017
DDENRKRAEEWLQAVQEGNEHQVMELADPNVRFVIGDKTLHGREQLSEWVKRVHDQMRFSVEIKHVRVHGDKVLITVRHTANVNGKPFDDTLIIKVVINNGKFQRIELRVDPEKLKHLKT	1.01
DEDKNKEAVERFLHNLENGDWQSLADLADKNAKVQIGDETVSGRESAQNELRKFAERVDHVDYHDMTVQGDKFEVVFQEDHNGRKRKVVAEFRVKNGRFKHVVFDDG	-0.008
EERVNSVAEQFLDAVHTGDPNRVREQMDKDARMHVGDTTLHGRENMANHWKTLLDEMRITFHDYRIRVTGEEVEIRADVQYNHNGRPKRRVLTYTVEADNGKIHNWKVQEDS	0.472
DEDTIRRQAKEFFKNFRDNDEDSLRTLMDENVEARYGDKTYHGRESVLTALATVLSQIDHLEVENLHVHNGRIEVVMKFVVNGREVRMNVIFHIRNGRIKKINIDPDEQRKLES	1.49
DEENHTLAKMWFHAYNKGDEDQVRRMADPNVKIQIGDKVIHGRNDEVRWLKERRDHQRSDIKLDHVSASNGRVQIHFTFTVQHNGKPNTSKQQLSMVFQGDKLKSLHMRTDG	-0.112
DEENREVMERFVQAFNRNNPDQLNTNADPNAKFVIGDKTINGRERMKKWQEEQNTHMRQHLEVTSISVHGNSITARVRMQFQVNGQPQEVDLTLHATIHNGQIKQLTFNLDKDEKKQIDK	-0.133
DDEAQRIVHKFVRAMQTNDPDSVEKLLDKNARIEYGDKTIHGNSQAREEVEKTKNQARFQIDSYRVQEEPGRAVLDQKVTFRINGQPDQMRHTLYFDFHNGRVTNLHMHIDEDDYQRHRG	-0.019
DEHDEKIVQTFLTALRTGDEEELQKNMDPNVSVHIGDQEVNGREEIARQLKKEQDEMRVDIRRYHISAHNGRVEVRIKFTAEVNGKPNRFTVVYDFVLHNGHIEKMHVKMSREDKKKKKQ	-0.189
DEEDLKNQARDFIEALETGDEDQIARLADPDAEADVGDTKYTGREEVREYMKHISDNVDHIQLKDMKVSGNEITIVAVLNVNGHEFDMEIHIELHNGRAKTIRIDPRAINHMTK	0.746
DSEAEDLLRRILDAIRTNNREELHRQIDPNAHFEIGDREFKGMTQWATEIVRQAKEIRVDQSFHSISIRNGKLSARVEQVNETNGKPHSRQFKLRMKWHDGQVKFLSMEDDG	0.362
DDDDQLRSMIKSYNDNFQRGDFVRLLKMAPPDVKIRIGEDEISGREKANEFATRLEEEVDQVEAEIKSVTAHNGKASADILVEVNHNGETKHFTIEVHFDLQNGEVHLTEVVYK	0.79
DEELKKQMDEALKARQNNDEQRLRDLFDPNVHIQVGDKVITGREEYAKRVVTTLRQLRFKYTVKSVKTKPNHIEIDVEVHNNRNGNPSNRKIVINMEADNGKISHLSVEHDG	0.585
EHELERQASKFAQLLRTNDFEKLLEMFDENARIEVGDKFVQGRDRIKKKLERDKTEMNRRYEDIKFTANGNTLNIKVIFTENHNGKPKRTVQLILITFRNGRIKRVEVRDDG	-0.065
DREQAERLIRIMENERTGDPDKVVEMVDPNAKFKVGNTTYKGREELRKEVETRQKKARFEMSIQDYSVHGDTASIRYTLVINVNGQPHESTFNLEARFHNGKVRELHVKFDEQRMRDIQS	0.49
DDDKIRKDAETFVKILETGNQERAQRMFDENAHMRIGDKTYHGRESVHKAIKTIRDEVDHVQVRHIDIQGEEVIIQMRFDHNGNQDIMTINLVIKNGRIKSATYTRP	0.537
DREERKKIAQTILKIFETGDHKKFKRQIDPNVEVVVGDRTYKGRTQATKAFNEIQEKVDEVDVKTVHYKGDHAIVDAVLVINGRRVTVYFHLTIHNGRVKSISMQFRDEEDERKFRG	0.367
DEKEIHEIAETFVEVLRNGNHDDLKELMDENVKLVYGDKELQGHHRAASHLAELVSRVDHMSVDSITVNGDSVKVIMQFVVNGVTAHITIIIKMTNGRIKELEIRYTNEDQRRQVDK	0.941
DEDLRRQAETMVDNINTNNERELEKLFDPNVHVVVGDRRINGTEHLRDYWRRIRDHMRLEVNLRRISVHNGKISAHVDVVREHNGKPDEDTFRMSAVVRNGKFHKMRVEKDG	1.37
DDEENKKINEQLKTGDPQTFVDQADENARFRIGDKDFQGREDAKKIADLRKNRVDHIRYREVHFEGDKFVLDAVATFNGRRIKFVVHVTFHNGRLKYYRIKVTNEEVRRQLDELNS	0.8
DHERLRKLAKDFVKILKHGDPDRMRELVDKDVRVQIGDKEVHGREKVDEMVENIRHRADHIDFTSFHASNGRVTVDVVVNVDGKNTRVTWRIVMSNGRVKMIQVTDG	1.82
DEDANRKAEEFAQNLRENDEDRLQQLVDPNARLNVGEFSVHGRTELTHQLRRVTREMRVEVQIRDIRVQNGHAHLDIEVVIDHNGKPSSRVLRMVVDFRNGKIQNLDVRTDQ	0.601
